The record followed here is publication PMC12176259, “Bacterial transcriptional repressor NrdR – a flexible multifactorial nucleotide sensor”.

In data set [1] the target is T1, NrdR (EcoNrdR) (Escherichia coli K-12 MG1655, UniProt P0A8D0 1-149).
T1 sequence: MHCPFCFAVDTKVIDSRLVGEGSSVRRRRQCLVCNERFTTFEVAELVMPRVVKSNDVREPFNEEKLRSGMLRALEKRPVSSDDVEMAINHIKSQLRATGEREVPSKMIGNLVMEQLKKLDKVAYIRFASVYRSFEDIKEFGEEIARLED
The experiment in a line: MST; ATP + dATP; MST: 17 mM Tris-HCl pH 8.6, 100 mM NaCl, 7 mM MgCl2, 0.33 mM TCEP, 0.025% Tween-20, nucleotides 1 mM each, 5 nM Cy5-DNA, room temperature. As to conditions: protein: recombinant; tags: C-terminal His6; chain copies: 4; label: 5'-Cy5 sense strand; blunt.

Data set [2] has as its target T1, NrdR (EcoNrdR). The data set can be described thus: cryo-EM structure (4 A); ATP + dATP 0.5 mM each, 5 mM Mg2+, Zn2+; NrdR tetramer; MST: 17 mM Tris-HCl pH 8.6, 100 mM NaCl, 7 mM MgCl2, 0.33 mM TCEP, 0.025% Tween-20, nucleotides 1 mM each, 5 nM Cy5-DNA, room temperature. As to conditions: protein: recombinant; tags: C-terminal His6; chain copies: 4; blunt.

B1: ribX promoter (dsDNA)
DNA 1: AGCATCGATCCTTTATCTCAAAAGCGTTGCGCCTTTGTTGTATCGTCAGTTCAGGGT
DNA 2: ACCCTGAACTGACGATACAACAAAGGCGCAACGCTTTTGAGATAAAGGATCGATGCT
In the case of B1, the binding result with NrdR (EcoNrdR) [1] is “no binding”.

B2: EcoEF7,3 (dsDNA)
DNA 1: GCACTATTTGCTATATATTGTGTGGTTGAATCTTTTTTCAACTACATCTAGTATCTC
DNA 2: GAGATACTAGATGTAGTTGAAAAAAGATTCAACCACACAATATATAGCAAATAGTGC
With B2, in the data set with NrdR (EcoNrdR) [2], the binding result is on record as “binds”.
